Experimental findings from paper PMC7855493 (Molecular cell, 2020) are described below.

The assay concerns the target T1, yeast mitochondrial RNA polymerase ΔN100 (y-mtRNAP ΔN100) (S. cerevisiae, UniProt P13433 101-1351).
T1 sequence (looked up): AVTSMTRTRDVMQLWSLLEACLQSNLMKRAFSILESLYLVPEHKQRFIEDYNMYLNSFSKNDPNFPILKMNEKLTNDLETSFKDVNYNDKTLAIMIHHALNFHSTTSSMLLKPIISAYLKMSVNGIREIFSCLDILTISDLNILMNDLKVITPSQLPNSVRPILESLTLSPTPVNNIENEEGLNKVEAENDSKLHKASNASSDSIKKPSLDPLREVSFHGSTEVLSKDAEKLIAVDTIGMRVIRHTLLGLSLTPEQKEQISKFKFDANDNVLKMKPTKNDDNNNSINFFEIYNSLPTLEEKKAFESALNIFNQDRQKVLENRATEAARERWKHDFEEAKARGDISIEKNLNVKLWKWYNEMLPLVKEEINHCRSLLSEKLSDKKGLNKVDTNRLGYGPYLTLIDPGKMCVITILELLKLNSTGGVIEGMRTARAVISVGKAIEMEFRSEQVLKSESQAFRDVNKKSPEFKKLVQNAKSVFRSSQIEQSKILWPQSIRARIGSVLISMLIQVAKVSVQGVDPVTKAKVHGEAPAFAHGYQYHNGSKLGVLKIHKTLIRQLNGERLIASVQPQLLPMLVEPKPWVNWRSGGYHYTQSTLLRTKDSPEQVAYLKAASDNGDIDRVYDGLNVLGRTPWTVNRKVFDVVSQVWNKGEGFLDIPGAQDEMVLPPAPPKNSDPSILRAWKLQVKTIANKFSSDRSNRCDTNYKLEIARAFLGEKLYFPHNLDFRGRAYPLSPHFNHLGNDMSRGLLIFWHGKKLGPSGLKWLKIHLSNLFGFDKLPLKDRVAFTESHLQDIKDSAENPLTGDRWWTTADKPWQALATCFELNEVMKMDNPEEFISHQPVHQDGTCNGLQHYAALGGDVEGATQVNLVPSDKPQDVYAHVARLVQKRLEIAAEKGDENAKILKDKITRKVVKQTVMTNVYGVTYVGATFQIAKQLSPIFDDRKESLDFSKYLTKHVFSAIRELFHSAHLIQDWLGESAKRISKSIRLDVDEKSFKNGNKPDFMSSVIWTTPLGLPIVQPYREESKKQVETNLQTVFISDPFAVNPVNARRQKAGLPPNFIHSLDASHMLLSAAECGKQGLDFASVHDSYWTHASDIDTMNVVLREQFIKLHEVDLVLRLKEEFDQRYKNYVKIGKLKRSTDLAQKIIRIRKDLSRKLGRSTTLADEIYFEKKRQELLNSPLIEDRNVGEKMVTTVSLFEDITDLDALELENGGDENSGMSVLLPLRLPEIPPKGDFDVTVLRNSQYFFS
Nature of the assay: cryo-EM structure.

B1: MTF1 (yeast mitochondrial transcription factor), wild type (natural protein, S. cerevisiae)
chain: SVPIPGIKDISKLKFFYGFKYLWNPTVYNKIFDKLDLTKTYKHPEELKVLDLYPGVGIQSAIFYNKYCPRQYSLLEKRSSLYKFLNAKFEGSPLQILKRDPYDWSTYSNLIDEERIFVPEVQSSDHINDKFLTVANVTGEGSEGLIMQWLSCIGNKNWLYRFGKVKMLLWMPSTTARKLLARPGMHSRSKCSVVREAFTDTKLIAISDANELKGFDSQCIEEWDPILFSAAEIWPTKGKPIALVEMDPIDFDFDVDNWDYVTRHLMILKRTPLNTVMDSLGHGGQQYFNSRITDKDLLKKCPIDLTNDEFIYLTKLFMEWPFKPDILMDFVDMYQTEHSG
On to B1, for which the binding result is “binds”.
